Measurements as given in article PMC9976899, “Identification of a novel 5-aminomethyl-2-thiouridine methyltransferase in tRNA modification” (Nucleic Acids Research, 2023).

Target: the molecule itself
Assay: SEC; oligomeric state of saMnmM in solution examined by size exclusion chromatography; conditions not given

B1: Staphylococcus aureus MnmM (5-aminomethyl-2-thiouridine methyltransferase, formerly YtqB) (enzyme)
chain: MKLERILPFSKTLIKQHITPESIVVDATCGNGNDTLFLAEQVPEGHVYGFDIQDLALENTRDKVKDFNHVSLIKDGHENIEHHINDAHKGHIDAAIFNLGYLPKGDKSIVTKPDTTIQAINSLLSLMSIEGIIVLVIYHGHSEGQIEKHALLDYLSTLDQKHAQVLQYQFLNQRNHAPFICAIEKIS
notes: MnmM (YtqB) of Staphylococcus aureus, UniProt Q2FXG9; gene codon-optimized and synthesized; Truncated constructs are stated only for the plant orthologs; A C-terminal His-tag (pLATE31) is stated expressly only for the B. subtilis gene; also called saMnmM; saYtqB; source: E. coli BL21(DE3), purified (HisTrap HP, SEC Superdex 75)
For B1, which “stoichiometry N” value is on record?
The value was 2.
